Measured values reported in WO2025083273A1 (dated 2025).
Each block holds one binder with its values, some of them ahead of it.

Legend:
[1] = target: T1, human DR3 (TNFRSF25) expressed on cells (human, UniProt Q93038 25-417); test: cell-based or functional assay
T1 sequence: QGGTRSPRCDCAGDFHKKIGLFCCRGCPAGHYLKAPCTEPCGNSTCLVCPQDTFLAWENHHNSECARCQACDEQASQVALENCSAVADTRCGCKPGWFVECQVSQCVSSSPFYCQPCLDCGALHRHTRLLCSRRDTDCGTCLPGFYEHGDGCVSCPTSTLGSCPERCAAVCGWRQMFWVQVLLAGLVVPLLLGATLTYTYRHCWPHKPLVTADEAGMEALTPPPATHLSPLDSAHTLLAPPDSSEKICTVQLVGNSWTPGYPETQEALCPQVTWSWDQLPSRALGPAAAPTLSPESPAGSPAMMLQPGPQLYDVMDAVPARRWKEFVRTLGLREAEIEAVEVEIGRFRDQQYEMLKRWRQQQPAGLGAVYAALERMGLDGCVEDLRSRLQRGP

DR3-8i [2] = target: T2, DR3-8i (human); test: BLI, IgG captured on protein A, DR3-8i in solution; Average
T2 construct: also called purified monomeric DR3-8i antigen protein
T2 chain: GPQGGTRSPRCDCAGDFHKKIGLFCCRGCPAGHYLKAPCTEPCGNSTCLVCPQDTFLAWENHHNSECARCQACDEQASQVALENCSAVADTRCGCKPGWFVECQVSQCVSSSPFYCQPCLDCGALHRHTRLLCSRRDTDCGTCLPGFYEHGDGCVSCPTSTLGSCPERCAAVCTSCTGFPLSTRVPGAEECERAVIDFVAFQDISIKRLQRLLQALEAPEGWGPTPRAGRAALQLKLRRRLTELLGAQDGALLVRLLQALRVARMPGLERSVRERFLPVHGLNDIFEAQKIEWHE

DR3-8i [3] = target: T2, DR3-8i; test: BLI, IgG captured on protein A, DR3-8i in solution; Experiment 1
DR3-8i [4] = target: T2, DR3-8i; test: BLI, IgG captured on protein A, DR3-8i in solution; Experiment 2

B1: VHg9/VLg11 (antibody, human IgG1, V domains shown)
VH: EVQLVESGGGLVKPGGSLRLSCAASGFTFSSYAMSWVRQAPGKGLEWVSTISDGDSYSYFPDSVKDRFTISRDNAKNSLYLQMNSLRAEDTAVYYCARDRIYGSVQYYAMDYWGQGTLVTVSS
VL: DIVMTQSPDSLAVSLGERATINCRASESVEFSGTSLMQWYQQKPGQPPKLLIYAASNVESGVPDRFSGSGSGTDFTLTISSLQAEDVAVYYCQQSRKLPYTFGQGTKLEIK
notes: human IgG1
EC50 (pM), DR3 Jurkat reporter [1]: 261 pM | Signal (FLU) [1]: 3.27e+06 FLU | Kd (DR3-8i [2]): 0.188 nM | Kd (DR3-8i [3]): 0.192 nM | Kd (DR3-8i [4]): 0.184 nM

B2: VHg1/mVL (antibody, human IgG1, V domains shown)
VH: QVQLVQSGGGLVQPGGSLRLSCAASGFTFSSYAMSWVRQAPGKGLEWVSTISDGDSYSYFPDSVKDRFTISRDNSKNTLYLQMNSLRAEDTSVYYCARDRIYGSVQYYAMDYWGQGTLVTVSS
VL: DIVLTQSPASLAVSLGQRATISCRASESVEFSGTSLMQWYQQRPGLPPKLLIYAASNVESGVPARFSGSGSGTDFSLNIHPVEEDDIAMYFCQQSRKLPYTFGGGTKLEIN
Signal (FLU) [1]: 2.43e+06 FLU

B3: VHg5/VLg5 (antibody, human IgG1, V domains shown)
VH: QVQLQQSGGGLVQAGGSLRLSCAASGFTFTSYAMSWVRQAPGKGLEWVATISDGDSYSYFPDSVKDRFIISRDNAKNSLFLQMNSLRAEDTAVYYCARDRIYGSVQYYAMDYWGRGTLVTVSS
VL: EIVLTQSPGTLSLSPGERGTLSCRASESVEFSGTSLMQWYQQKPGQAPRLLIYAASNVESGIPDRFSGSGSETDFTLTISRLEPEDLAVYYCQQSRKLPYTFGQGTRLEIK
Signal (FLU) [1]: 2.42e+06 FLU

B6: VHg1/VLg5 (antibody, human IgG1, V domains shown)
VH: QVQLVQSGGGLVQPGGSLRLSCAASGFTFSSYAMSWVRQAPGKGLEWVSTISDGDSYSYFPDSVKDRFTISRDNSKNTLYLQMNSLRAEDTSVYYCARDRIYGSVQYYAMDYWGQGTLVTVSS
VL: EIVLTQSPGTLSLSPGERGTLSCRASESVEFSGTSLMQWYQQKPGQAPRLLIYAASNVESGIPDRFSGSGSETDFTLTISRLEPEDLAVYYCQQSRKLPYTFGQGTRLEIK
Signal (FLU) [1]: 1.99e+06 FLU

B9: VHg2/mVL (antibody, human IgG1, V domains shown)
VH: QMQLVQSGGGLVKPGGSLRLSCAASGFTFSSYAMSWIRQAPGKGLEWVSTISDGDSYSYFPDSVKDRFTISRDNAKNSLYLQMNSLRAEDTAVYYCTRDRIYGSVQYYAMDYWGRGTLVTVSS
VL: DIVLTQSPASLAVSLGQRATISCRASESVEFSGTSLMQWYQQRPGLPPKLLIYAASNVESGVPARFSGSGSGTDFSLNIHPVEEDDIAMYFCQQSRKLPYTFGGGTKLEIN
Signal (FLU) [1]: 2.57e+06 FLU

B10: VHg3/VLg5 (antibody, human IgG1, V domains shown)
VH: EVQLVQSGGGLVKPGGSLRLSCAASGFKFSSYAMSWVRQAPGKGLEWLSTISDGDSYSYFPDSVKDRFIISRDNAKNSLYLQMNSLRVEDTGVYYCARDRIYGSVQYYAMDYWGQGTLVTVSS
VL: EIVLTQSPGTLSLSPGERGTLSCRASESVEFSGTSLMQWYQQKPGQAPRLLIYAASNVESGIPDRFSGSGSETDFTLTISRLEPEDLAVYYCQQSRKLPYTFGQGTRLEIK
Signal (FLU) [1]: 2.43e+06 FLU

B11: VHg2/VLg5 (antibody, human IgG1, V domains shown)
VH: QMQLVQSGGGLVKPGGSLRLSCAASGFTFSSYAMSWIRQAPGKGLEWVSTISDGDSYSYFPDSVKDRFTISRDNAKNSLYLQMNSLRAEDTAVYYCTRDRIYGSVQYYAMDYWGRGTLVTVSS
VL: EIVLTQSPGTLSLSPGERGTLSCRASESVEFSGTSLMQWYQQKPGQAPRLLIYAASNVESGIPDRFSGSGSETDFTLTISRLEPEDLAVYYCQQSRKLPYTFGQGTRLEIK
Signal (FLU) [1]: 2.52e+06 FLU

B12: VHg3/VLg1 (antibody, human IgG1, V domains shown)
VH: EVQLVQSGGGLVKPGGSLRLSCAASGFKFSSYAMSWVRQAPGKGLEWLSTISDGDSYSYFPDSVKDRFIISRDNAKNSLYLQMNSLRVEDTGVYYCARDRIYGSVQYYAMDYWGQGTLVTVSS
VL: DVVMTQSPDSLAVSLGERATINCRASESVEFSGTSLMQWYQQKPGQPPKLLIYAASNVESGVPDRFSGSGSGTDFTLTISSLQAEDVVVYYCQQSRKLPYTFGGGTKVEIK
Signal (FLU) [1]: 2.46e+06 FLU

B15: VHg5/mVL (antibody, human IgG1, V domains shown)
VH: QVQLQQSGGGLVQAGGSLRLSCAASGFTFTSYAMSWVRQAPGKGLEWVATISDGDSYSYFPDSVKDRFIISRDNAKNSLFLQMNSLRAEDTAVYYCARDRIYGSVQYYAMDYWGRGTLVTVSS
VL: DIVLTQSPASLAVSLGQRATISCRASESVEFSGTSLMQWYQQRPGLPPKLLIYAASNVESGVPARFSGSGSGTDFSLNIHPVEEDDIAMYFCQQSRKLPYTFGGGTKLEIN
Signal (FLU) [1]: 2.69e+06 FLU

B16: VHg6/VLg4 (antibody, human IgG1, V domains shown)
VH: QVQLQQSGGGLVQPGGSLRLSCAASGFTFSSYAMSWVRQAPGKGLEWVATISDGDSYSYFPDSVKDRFTISRDNARNSLYLQMNSLRAEDTAVYYCARDRIYGSVQYYAMDYWGRGTLVTVSS
VL: DVVMTQSPDSLAVSLGERATISCRASESVEFSGTSLMQWYQQKPRQPLKLLIYAASNVESGVPDRFSGSGSGTDFTLTISSLQAEDVAVYYCQQSRKLPYTFGQGTRLEIK
notes: human IgG1
EC50 (pM), DR3 Jurkat reporter [1]: 115 pM | Signal (FLU) [1]: 2.68e+06 FLU | Kd (DR3-8i [2]): 0.198 nM | Kd (DR3-8i [3]): 0.25 nM | Kd (DR3-8i [4]): 0.146 nM

B17: VHg3/VLg11 (antibody, human IgG1, V domains shown)
VH: EVQLVQSGGGLVKPGGSLRLSCAASGFKFSSYAMSWVRQAPGKGLEWLSTISDGDSYSYFPDSVKDRFIISRDNAKNSLYLQMNSLRVEDTGVYYCARDRIYGSVQYYAMDYWGQGTLVTVSS
VL: DIVMTQSPDSLAVSLGERATINCRASESVEFSGTSLMQWYQQKPGQPPKLLIYAASNVESGVPDRFSGSGSGTDFTLTISSLQAEDVAVYYCQQSRKLPYTFGQGTKLEIK
notes: human IgG1
EC50 (pM), DR3 Jurkat reporter [1]: 1230 pM | Signal (FLU) [1]: 2.38e+06 FLU | Kd (DR3-8i [2]): 0.491 nM | Kd (DR3-8i [3]): 0.364 nM | Kd (DR3-8i [4]): 0.618 nM

B18: VHg2/VLg11 (antibody, human IgG1, V domains shown)
VH: QMQLVQSGGGLVKPGGSLRLSCAASGFTFSSYAMSWIRQAPGKGLEWVSTISDGDSYSYFPDSVKDRFTISRDNAKNSLYLQMNSLRAEDTAVYYCTRDRIYGSVQYYAMDYWGRGTLVTVSS
VL: DIVMTQSPDSLAVSLGERATINCRASESVEFSGTSLMQWYQQKPGQPPKLLIYAASNVESGVPDRFSGSGSGTDFTLTISSLQAEDVAVYYCQQSRKLPYTFGQGTKLEIK
notes: human IgG1
EC50 (pM), DR3 Jurkat reporter [1]: 136 pM | Signal (FLU) [1]: 2.9e+06 FLU | Kd (DR3-8i [2]): 0.0536 nM | Kd (DR3-8i [3]): 0.0636 nM | Kd (DR3-8i [4]): 0.0435 nM

More lines, now with the values ahead:

Signal (FLU) [1]: 3.35e+06 FLU
B4: VHg9/mVL (antibody, human IgG1, V domains shown)
VH: EVQLVESGGGLVKPGGSLRLSCAASGFTFSSYAMSWVRQAPGKGLEWVSTISDGDSYSYFPDSVKDRFTISRDNAKNSLYLQMNSLRAEDTAVYYCARDRIYGSVQYYAMDYWGQGTLVTVSS
VL: DIVLTQSPASLAVSLGQRATISCRASESVEFSGTSLMQWYQQRPGLPPKLLIYAASNVESGVPARFSGSGSGTDFSLNIHPVEEDDIAMYFCQQSRKLPYTFGGGTKLEIN

Signal (FLU) [1]: 2.54e+06 FLU
B5: VHg10/VLg1 (antibody, human IgG1, V domains shown)
VH: EVQLVESGGGLVQPGGSLRLSCAASGFTFSSYAMSWVRQAPGKGLEWVSTISDGDSYSYFPDSVKDRFTISRDNSKNTLYLQMNSLRAEDTAVYYCARDRIYGSVQYYAMDYWGQGTLVTVSS
VL: DVVMTQSPDSLAVSLGERATINCRASESVEFSGTSLMQWYQQKPGQPPKLLIYAASNVESGVPDRFSGSGSGTDFTLTISSLQAEDVVVYYCQQSRKLPYTFGGGTKVEIK

Signal (FLU) [1]: 3.33e+06 FLU
B7: VHg9/VLg13 (antibody, human IgG1, V domains shown)
VH: EVQLVESGGGLVKPGGSLRLSCAASGFTFSSYAMSWVRQAPGKGLEWVSTISDGDSYSYFPDSVKDRFTISRDNAKNSLYLQMNSLRAEDTAVYYCARDRIYGSVQYYAMDYWGQGTLVTVSS
VL: DIQMTQSPSSLSASVGDRVTITCRASESVEFSGTSLMQWYQQKPGKAPKLLIYAASNVESGVPSRFSGSGSGTDFTFTISSLQPEDIATYYCQQSRKLPYTFGQGTKLEIK

Signal (FLU) [1]: 2.23e+06 FLU
B8: VHg9/VLg1 (antibody, human IgG1, V domains shown)
VH: EVQLVESGGGLVKPGGSLRLSCAASGFTFSSYAMSWVRQAPGKGLEWVSTISDGDSYSYFPDSVKDRFTISRDNAKNSLYLQMNSLRAEDTAVYYCARDRIYGSVQYYAMDYWGQGTLVTVSS
VL: DVVMTQSPDSLAVSLGERATINCRASESVEFSGTSLMQWYQQKPGQPPKLLIYAASNVESGVPDRFSGSGSGTDFTLTISSLQAEDVVVYYCQQSRKLPYTFGGGTKVEIK

Signal (FLU) [1]: 2.6e+06 FLU
B13: VHg6/mVL (antibody, human IgG1, V domains shown)
VH: QVQLQQSGGGLVQPGGSLRLSCAASGFTFSSYAMSWVRQAPGKGLEWVATISDGDSYSYFPDSVKDRFTISRDNARNSLYLQMNSLRAEDTAVYYCARDRIYGSVQYYAMDYWGRGTLVTVSS
VL: DIVLTQSPASLAVSLGQRATISCRASESVEFSGTSLMQWYQQRPGLPPKLLIYAASNVESGVPARFSGSGSGTDFSLNIHPVEEDDIAMYFCQQSRKLPYTFGGGTKLEIN

Signal (FLU) [1]: 2.32e+06 FLU
B14: VHg9/VLg6 (antibody, human IgG1, V domains shown)
VH: EVQLVESGGGLVKPGGSLRLSCAASGFTFSSYAMSWVRQAPGKGLEWVSTISDGDSYSYFPDSVKDRFTISRDNAKNSLYLQMNSLRAEDTAVYYCARDRIYGSVQYYAMDYWGQGTLVTVSS
VL: DVVMTQSPPSLPVTPGEPASISCRASESVEFSGTSLMQWYLQKPGQSPQVLIYAASNVESGVPDRFSGSGSGTDFTLKISRVEAEDVGVYYCQQSRKLPYTFGQGTRLEIK
